Source: patent US20100028342A1

Experiments:
[1] = target: recombinant extracellular portion of human IGF-IR (soluble IGF-IR) (human) (UniProt P08069); experiment: human IGF-IR-based ELISA, column Binding (ED50)
[2] = target: recombinant extracellular portion of human IGF-IR (soluble IGF-IR) (human) (UniProt P08069); experiment: human IGF-IR binding ELISA, repeated with the same sample of A12
[3] = target: recombinant extracellular portion of human IGF-IR (soluble IGF-IR) (human) (UniProt P08069); experiment: ligand blocking of IGF-I binding to IGF-IR, column Blocking (EC50)
[4] = target: recombinant extracellular portion of human IGF-IR (soluble IGF-IR) (human) (UniProt P08069); experiment: competition: blocking of radiolabeled IGF-I binding to immobilized IGF-IR
[5] = target: recombinant extracellular portion of human IGF-IR (soluble IGF-IR) (human) (UniProt P08069); experiment: BIAcore 3000, soluble IGF-IR immobilized on the sensor chip, full IgG in solution
[6] = target: recombinant extracellular portion of human IGF-IR (soluble IGF-IR) (human) (UniProt P08069); experiment: ratio of plate binding: ED50 on human IGF-IR against the highest concentration tested on IR
[7] = target: recombinant extracellular portion of human IGF-IR (soluble IGF-IR) (human) (UniProt P08069); experiment: competition: cold IGF-II against radiolabeled IGF-I on immobilized IGF-IR; cold IGF-II as competitor

Chain of antibody A12 (fully human IgG1 anti-IGF-IR antibody) (VH): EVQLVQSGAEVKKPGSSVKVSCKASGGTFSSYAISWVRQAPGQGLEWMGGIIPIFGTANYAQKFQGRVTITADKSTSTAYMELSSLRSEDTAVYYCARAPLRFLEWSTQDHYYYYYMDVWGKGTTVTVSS
Chain of antibody A12 (fully human IgG1 anti-IGF-IR antibody) (VL): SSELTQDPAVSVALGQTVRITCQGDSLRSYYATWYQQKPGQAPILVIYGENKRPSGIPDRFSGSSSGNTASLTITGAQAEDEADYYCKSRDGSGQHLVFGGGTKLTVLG

EC50 [1] [pM] | EC50 [2] [pM] | EC50 [3] [pM] | IC50 [4] [pM] | Kd [5] [pM] | koff [5] [s⁻¹] | kon [5] [M⁻¹ s⁻¹] | selectivity for IGF-IR in comparison to IR [6] [fold] | IC50 [7] [pM] | Substance
300 | 300 to 500 | 600 to 1000 | 1000 | 41 | 3e-05 | 720000 | > 3000 |  | antibody A12 (fully human IgG1 anti-IGF-IR antibody)
 |  |  |  |  |  |  |  | 6000 | IGF-II (from UniProt P01344 25-91) (ligand)
